Molecular target: His-tagged recombinant MIF (macrophage migration inhibitory factor), expressed in Escherichia coli from pQE30
Experiment: SPR, BIAcore 2000, His-tagged MIF on Sensor Chip NTA, TRX as analyte, 1:1 binding with drifting baseline model

Sequence of His-tagged recombinant MIF (macrophage migration inhibitory factor), expressed in Escherichia coli from pQE30 (P14174 2-115): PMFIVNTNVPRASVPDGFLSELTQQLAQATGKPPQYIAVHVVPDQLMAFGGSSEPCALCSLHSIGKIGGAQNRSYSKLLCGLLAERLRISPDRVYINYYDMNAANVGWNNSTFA

Kd: 9.96 nM | kon: 120 M⁻¹ s⁻¹
Substance: Recombinant TRX (Ajinomoto Co., Inc.)

Source: patent publication US20090148464A1
